Assay results taken from patent publication US20120277180A1, “Cofactors and Methods for Use for Individuals” (VITAPATH GENETICS, INC, priority 2009, published 2012).

Assays:
human MTHFR [1] = target: T1, human MTHFR (Homo sapiens, UniProt P42898, A222V); test: Cell-free MTHFR enzyme activity assay in crude yeast extract; type: biochemical; parameters: expressed in transfected cells; conditions: cells grown at 50 ug/ml folinic acid
human MTHFR [2] = target: T1, human MTHFR; test: In vivo yeast complementation growth assay: MTHFR alleles in fol3 met13 haploid yeast, growth without methionine with titrated folinic acid; type: cell-based; parameters: expressed in transfected cells; host or cells: Saccharomyces cerevisiae fol3Δ::KanMX met13Δ::KanMX (S288c background), GAL1 promoter; conditions: 50 p g/ml folate supplementation

## A222V: common functionally impaired human MTHFR variant, catalytic domain substitution A222V
Human MTHFR [1]
  Drop in enzyme activity in cell-free assays: 50%
Human MTHFR [2]
  Reduction in growth rate: 50%
